Assay: soluble on expression in E. coli; label from the status in PepcDB or PDB records
With “MTKIFIRDDNGGTEMSQDPFQEREAEKYANPIPSREFILEHLTKREKPASRDELAVELHIEGEEQLEGLRRRLRAMERDGQLVFTRRQCYALPERLDLVKGTVIGHRDGYGFLRVEGRKDDLYLSSEQMKTCIHGDQVLAQPLGADRKGRREARIVRVLVPKTSQIVGRYFTEAGVGFVVPDDSRLSFDILIPPDQIMGARMGFVVVVELTQRPTRRTKAVGKIVEVLGDNMGTGMAVDIALRTHEIPYIWPQAVEQQVAGLKEEVPEEAKAGRVDLRDLPLVTIDGEDARDFDDAVYCEKKRGGGWRLWVAIADVSYYVRPSTPLDREARNRGTSVYFPSQVIPMLPEVLSNGLCSLNPQVDRLCMVCEMTVSSKGRLTGYKFYEAVMSSHARLTYTKVWHILQGDQDLREQYAPLVKHLEELHNLYKVLDKAREERGGISFESEEAKFIFNAERRIERIEQTQRNDAHKLIEECMILANISAARFVEKAKEPALFRIHDKPSTEAITSFRSVLAELGLELPGGNKPEPRDYAELLESVADRPDAEMLQTMLLRSMKQAIYDPENRGHFGLALQSYAHFTSPIRRYPDLTLHRAIKYLLAKEQGHQGNTTETGGYHYSMEEMLQLGQHCSMAERRADEATRDVADWLKCDFMLDQVGNVFKGVISSVTGFGFFVRLDDLFIDGLVHVSSLDNDYYRFDQVGQRLMGESSGQTYRLGDRVEVRVEAVNMDERKIDFSLISSERAPRNVGKTAREKAKKGDAGKKGGKRRQVGKKVNFEPDSAFRGEKKTKPKAAKKDARKAKKPSAKTQKIAAATKAKRAAKKKVAELEHHHHHH” the “soluble on expression in E. coli” value was “soluble”.
For “MDGHYEVSKSILINRSSPDVFAYVSHIKNQEHYSVWAKRDTNSIKTYRGRDGVVGFTATWKSEMKKVGQGEQEIKKIIPNKRIDLELRFFKPFEATDHVFMETIAQDEEETKVVWGFDGEMAYPVNFFLLFVDMEDVLGGDLETGLVNLKTILESKLEHHHHHH”, the “soluble on expression in E. coli” value was “soluble”.
With “MQTSPEREAVIIRSGNSKILNTRSLMSDSRPEVLTEEDVLRLFPVLGGERRLTRRLLKALKITDINAVHARHINLRGAEFAHAALTDPAINVCYRLHGAEHLEEMRKGGAFTTVSNHPFGSLDGIMLIDIIGSVRPDYSVLVNGFLSMISCLRDSFIPVAPLKGMAGGLDSKHNVSGVKEVLNRLQNGQPVGFFPAGGISVYKGNRNRVMDSEWQASCAKMILVSQVPVYPIFFSGRNSWYFHFLGWLSWAIRTPRIPAELFNKRGHIFDVYIGDPIPPETIARFEKNPRELALFLYDRTYRLAPGHKKNK” the “soluble on expression in E. coli” value was “not soluble”.
For “MGSDKIHHHHHHMSTNALRGKAAIVGFGDSYCKRGEVKSAMRLAQEATRRALDDAGLNKDEIDGLLTGRAPMSDQRHQWNNIFAAYNKITPRYASEITIHAAGMNSMLKHAALAVTSGVARFVLCVGADAAASQPTVRAQIGGMDADPEFEQPYEPIIPTIYAQMACRLMHEYGMSEEDFSAVAVQCQEWAVHHPYAAKGHKGLVTIDDVMRSPMIASPLRLWHCAPWGPPGTAGAVIVTDADTARSMSDRPIYLLGAGECQTHEYLSDRMALRSSILPLGDLPNITSTGCRVAGDAAFSMAGLRPDDINVVQTASQFAHVELQVLAELGFTDLRAAGEFVRSGATGPQGALPTNTNGGWLSFGQPGVSCVMDSISETIRQLRGEALGLQVQDAHIGLVHGNGGMQACHSVAILGREP”, the “soluble on expression in E. coli” value was “not soluble”.
In the case of “GPLGSALEIAEQLTLLDHLVFKSIPYEEFFGQGWMKAEKYERTPYIMKTTKHFNHVSNFIASEIIRNEDISARASAIEKWVAVADICRCLHNYNAVLEITSSINRSAIFRLKKTWLKVSKQTKSLLDKLQKLVSSDGRFKNLRESLRNCDPPCVPYLGMYLTDLVFIEEGTPNYTEDGLVNFSKMRMISHIIREIRQFQQTTYKIDPQPKVIQYLLDESFMLDEESLYESSLLIEPKLPT”, the “soluble on expression in E. coli” value is reported as “soluble”.
With “SRRRPLSCDAASQAGSNYPRCWNCGGPWGPGREDRFFCPQCRALQAPDPTRDYFSLMDCNRSFRVDTAKLQHRYQQLQRLVHPDFFSQRSQTEKDFSEKHSTLVNDAYKTLLAPLSRGLYLLKLHGIEIPERTDYEMDRQFLIEIMEINEKLAEAESEAAMKEIESIVKAKQKEFTDNVSSAFEQDDFEEAKEILTKMRYFSNIEEKIKLKKIPL” the “soluble on expression in E. coli” value was “soluble”.
For “SLGKKIETHLEDMVAQANAQLKLTAPESNLEVSYQNYHRGVFSSQLQLLVKPIAGKENPWIKSGQSVIFNESVDHGPFPLAQLKKLNLIPSMASIQTTLVNNEVSKPLFDMAKGETPFEINSRIGYSGDSSSDISLKPLNYEQKDEKVAFSGGEFQLNADRDGKAISLSGEAQSGRIDAVNEYNQKVQLTFNNLKTDGSSTLASFGERVGNQKLSLEKMTISVEGKELALLEGMEISGKSDLVNDGKTINSQLDYSLNSLKVQNQDLGSGKLTLKVGQIDGEAWHQFSQQYNAQTQALLAQPEIANNPELYQEKVTEAFFSALPLMLKGDPVITIAPLSWKNSQGESALNLSLFLKDPATTKEAPQTLAQEVDRSVKSLDAKLTIPVDMATEFMTQVAKLEGYQEDQAKKLAKQQVEGASAMGQMFRLTTLQDNTITTSLQYANGQITLNGQKMSLEDFVGMFAMPALNVPAVPAIPQQ”, the “soluble on expression in E. coli” value was “soluble”.
With “MFKKALFILSLCPSFALAQSYVVYDFTHNRVLESHASDSIQPIASVTKLMTANVFLENNKNPNCRIAITKEDTDRIKGTGTKLPKNIPISCNELLKAMLVHSDNYAAHALSRAAGISRRQFIKKMNEKAHQLGMYSTRFHDSSGLSSYNISSPMDLVKLAKYSLNKSDIKRLSNLSATYIQAGKQKLYIKNTNKLVRDEIFDAAVNKTGYIQESGYNLVFINKHRCKNATIGVISLNNTSSAYRSSFTKSKLEKFGCTALNGRTIRDVAGEAQYEDGYDEVGFNTLIQKLSK” the “soluble on expression in E. coli” value was “not soluble”.
In the case of “MSLRKNLEEEQRLIDAKKLSLVIDLDKTLIDTTEVRNRAEVDAIKKLDPAATEDDFFEFNMNQNLLIRYRPHVRQFLASIAPYFDMQIYTLASPAYAHAILSKIDPEDKLFKNRIFSRTAEDFAMIKEAMRNQTDIVNKKNIKKIFPYSDKLVLVLDDSPEVWFCDNNKLFKGLVQIKRYSYFTRQGPNSPPTVNPDYVNDDILIQMRSVLIDVHDMFYKNYDPEESHVIMTLHQRKAQVFEGKTFYFSGLSEDDTMTFTRLAEEFGALVVDSFTPYTTHIIVGEGGTDDQIQKAMEYRGVYIIYLKWLFECFIQYARIEESLYSIQGIPCPTEGHHHHHH”, the “soluble on expression in E. coli” value is reported as “soluble”.
In the case of “MGHHHHHHSHMERFVVTAPPARNRSKTALYVTPLDRVTEFGGELHEDGGKLFCTSCNVVLNHVRKSAISDHLKSKTHTKRKAEFEEQNVRKKQRPLTASLQCNSTAQTEKVSVIQDFVKMCLEANIPLEKADHPAVRAFLSRHVKNGGSIPKSDQLRRTYLPDGYENENQLLNSQDC”, the “soluble on expression in E. coli” value is reported as “soluble”.
For “MKKVELLAPAGNLEKLKMAVLYGADAVYLGGEEFSLRAYAENFTLDELKAGVEFAHSKGKKVYVTINIFPHNDDLKKIPEYIKEVAGIGVDAIILSDPGILSIVKEIAPDMEIHLSTQANNTNFMSARFWHNHGVKRIILARELSLEEIREIREKTPDSLELEVFVHGAMCISYSGRCLLSNYMAGRDSNRGLCAHPCRWKYYLMEEKRPGEYYPVYENERGTFIFNSRDLCMIEHIPELVESGVSSFKIEGRMKSSFYVATVVKAYREAIDAYYEDKDNYKFDPRLLEEVCKVSHREFTTGFFFNKPGPKDQIYATSSYIREYDFVGVVQKYDKATKIATVEQRNRMYKGEEIEVVNPKGNFFVQKIEWMKNADGEDIDVAPHPQMTVYMPMKEDVEEFAMLRRKSSPNK”, the “soluble on expression in E. coli” value was “soluble”.
In the case of “MGSSHHHHHHSSGLVPRGSHMNQDPTQQLEPFLKRFLASLDLLYTQPTSQPFPNVESYATQLGSNLKRSSAIIVNGQPIIPSPQEDCKLQFQKKWLQTPLSSHQLTSYDGHLIPGTGTFVVHFSAKVRFDQSGRNRLGESADLFQENNSIVSKTNQRPIWGSWFGVDVNLVVDENVMQDGEIINSMDYRFTYVPNDSIIKV”, the “soluble on expression in E. coli” value is reported as “soluble”.
With “MIRFEQVSKAYLGGRQALQGVDFHLRPAEMAFLTGHSGAGKSTLLKLICGIERPSAGHIWFGGHDISRLKNREVPFLRRQIGMIFQDHHLLLDRTVYDNVAMPLIIAGASSEDIRRRVSAALDKVGLLDKAKNFPIQLSGGEQQRVGIARAVVNKPAVLLADEPTGNLDDALSEGILRLFEEFNRVGVTVLMATHDTSLIARRRYPILTLSQGRMSGAHHGE” the “soluble on expression in E. coli” value was “not soluble”.
For “VSYVSVLPATLATAATEVARIGSALSLASAVAAAQTSAVQAAAADEVSAAIAALFSAHGRDFQALSARAAAFHHEFVQALAAGAGSYAVAEIAAASPLQSLIDVFNAPIQAATGRPLIGNGANGQPGTGAPGGPAGG”, the “soluble on expression in E. coli” value was “soluble”.
With “MNQSCPNKTSFKIAFIQARWHADIVDEARKSFVAELAAKTGGSVEVEIFDVPGAYEIPLHAKTLARTGRYAAIVGAAFVIDGGIYDHDFVATAVINGMMQVQLETEVPVLSVVLTPHHFHESKEHHDFFHAHFKVKGVEAAHAALQIVSERSRIAALV” the “soluble on expression in E. coli” value was “soluble”.
In the case of “MPYVERSNIVGLFGGSFNPPHEGHLLVAKTAIRRLRLNQLWWMVTPGNPLKDCTHLPPLEKRMRLSLELIDDPKIRVTGFEQAIGSKVSVETISHILAHYRRVHFVWIMGADSLATIHHWYRWHDIISMLPIAIIDRPLVHMSALSSSMAHIYRSFRLDERESIRLPFMKPPAWIYLHGALSFQSSTNLRLKENAFF”, the “soluble on expression in E. coli” value is reported as “not soluble”.
In the case of “MSLKITDLELHAVGIPRHTGFVNKHVIVKIHTDEGLTGIGEMSDFSHLPLYSVDLHDLKQGLLSILLGQNPFDLMKINKELTDNFPETMYYYEKGSFIRNGIDNALHDLCAKYLDISVSDFLGGRVKEKIKVCYPIFRHRFSEEVESNLDVVRQKLEQGFDVFRLYVGKNLDADEEFLSRVKEEFGSRVRIKSYDFSHLLNWKDAHRAIKRLTKYDLGLEMIESPAPRNDFDGLYQLRLKTDYPISEHVWSFKQQQEMIKKDAIDIFNISPVFIGGLTSAKKAAYAAEVASKDVVLGTTQELSVGTAAMAHLGCSLTNINHTSDPTGPELYVGDVVKNRVTYKDGYLYAPDRSVKGLGIELDESLLAKYQVPDLSWDNVTVHQLQDRTADTKSEGHHHHHH”, the “soluble on expression in E. coli” value is reported as “soluble”.
For “MGSDKIHHHHHHMKGRMPIIEALCAHVERNATSWHVPGHKNGTLFEGLPSFFEWDKTELRGLDDFHYPEEAIYEAKLLLRQVYEARDSHFLINGSTVGNWAMLAAVSQRGDRIYVQRNSHKSVFNALEWLGLSPILLGPEIDPSTGISGNVSRETLEEALTTFPGGVAVFLTSPTYYGETARIEELLPFTTASGIPLLIDEAHGAHFGEAFGVRSAFELGATAVVQSAHKTLPALTMGAWIHERFTDDERRRLTRALQAFQTSSPSYLLMASLDFAREYREKWTVSNMKSVRTSHEHLHQQINQLTDITAFTFDDWSRMILSCEEYSGSQLIEALADQGLDAEFALGPHVVCILPLRSIEPFEQDTWINQIQLAIETLKAEGIPDKRYMEQPFMGKIKVSSLACPLDQLEDAEAVEQTFEQSVGLVSLETIIPYPPGIPLILRGERITAEHITMIEHYINTSIHLQGGEFLHQGKLRVIQEGIRE”, the “soluble on expression in E. coli” value was “not soluble”.
With “MKMKLAVLPGDGIGPEVMDAAIRVLKTVLDNDGHEAVFENALIGGAAIDEAGTPLPEETLDICRRSDAILLGAVGGPKWDHNPASLRPEKGLLGLRKEMGLFANLRPVKAYATLLNASPLKRERVENVDLVIVRELTGGLYFGRPSERRGPGENEVVDTLAYTREEIERIIEKAFQLAQIRRKKLASVDKANVLESSRMWREIAEETAKKYPDVELSHMLVDSTSMQLIANPGQFDVIVTENMFGDILSDEASVITGSLGMLPSASLRSDRFGMYEPVHGSAPDIAGQGKANPLGTVLSAALMLRYSFGLEKEAAAIEKAVDDVLQDGYCTGDLQVANGKVVSTIELTDRLIEKLNNSAAGPRIFQ” the “soluble on expression in E. coli” value was “soluble”.
For “MDDTLFQLKFTAKQLEKLAKKAEKDSKAEQAKVKKALQQKNVECARVYAENAIRKKNEGVNWLRMASRVDAVASKVQTAVTMKGVTKNMAQVTKALDKALSAMDLQKVSAVMDRFEQQVQNLDVHTSVMEDSVSSATTLTTPQEQVDSLIVQIAEENGLEVLDQLSQLPEGASAVGESSVRSQEDQLSRRLAALRN”, the “soluble on expression in E. coli” value was “not soluble”.
